Experimental data from paper PMC5823917, “Sumoylation regulates FMRP-mediated dendritic spine elimination and maturation” (Nature Communications, 2018).

Biological target: the molecule itself
Assay: pull-down; GST-FMRP (1-160) 1 ug with 2 ug His-FMRP (1-160), 2 h at 4 °C in dimerization buffer (50 mM Tris-HCl pH 8, 150 mM NaCl, 2.5 mM MgCl2, 0.5% NP40, 0.5 mM DTT); glutathione beads, five washes; free GST as control

B1: FMRP (1-160 aa), N-terminal domain, GST-tagged and His-tagged copies (domain or fragment)
chain: not shown
notes: FMRP, N-terminal domain, residues 1-160; Two differently tagged copies of one fragment: GST-FMRP (1-160) held on glutathione beads and His-FMRP (1-160) in solution; each copy carries one tag, not both; also called GST-FMRP (1-160); His-FMRP (1-160 aa); source: E. coli BL21(DE3), purified (glutathione gel for GST-FMRP, Nickel resin for His-FMRP)
binding result: binds
